In paper PMC8670242, “Functional Characterization and Structural Insights Into Stereoselectivity of Pulegone Reductase in Menthol Biosynthesis” (Frontiers in Plant Science, 2021):

Target: the molecule itself
Experiment: SEC; gel filtration of purified wild type MpPR on HiLoad 16/60 Superdex 200 in 10 mM Tris-HCl pH 8.0, 50 mM NaCl, 5 mM MgCl2, 1 mM DTT; molecular mass calibrated with high and low molecular weight calibration kits

B1: (+)-pulegone reductase from Mentha piperita (enzyme)
chain: MVMNKQIVLNNYINGSLKQSDLALRTSTICMEIPDGCNGAILVKNLYLSVNPYLILRMGKLDIPQFDSILPGSTIVSYGVSKVLDSTHPSYEKGELIWGSQAGWEEYTLIQNPYNLFKIQDKDVPLSYYVGILGMPGMTAYAGFFEICSPKKGETVFVTAAAGSVGQLVGQFAKMFGCYVVGSAGSKEKVDLLKNKFGFDDAFNYKEESDYDTALKRHFPEGIDIYFDNVGGKMLEAVINNMRVHGRIAVCGMVSQYSLKQPEGVHNLLKLIPKQIRMQGFVVVDYYHLYPKFLEMVLPRIKEGKVTYVEDISEGLESAPSALLGVYVGRNVGNQVVAVSRE
notes: (+)-pulegone reductase, Mentha piperita, UniProt Q6WAU0; gene cloned into pET28a with NheI and HindIII; also called MpPR; wild type MpPR; source: E. coli BL21(DE3), purified (Ni-NTA, gel filtration on Superdex 200)
stoichiometry N: 2
